Biological target: wild-type (WT) RBD of the SARS-CoV-2 spike protein (SARS-CoV-2) (UniProt P0DTC2)
Assay: ITC

Substance CC12.1 ScFv has a Kd of 23.9 nM.

Reference: paper doi:10.1101/2021.12.23.474050
